Data published in US20250026849A1 (ARCELLX, published 2025).

T1: BCMA (Homo sapiens (Human), UniProt Q02223 1-54, limits assumed)
T1 sequence: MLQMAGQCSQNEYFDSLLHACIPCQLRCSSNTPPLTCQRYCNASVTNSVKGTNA


Target: T1, BCMA
Assay: ELISA, format not described
Parameters: unit not given here

ELISA_avg | Binder
3.03 | D-domain SEQ ID NO: 316 (designed binder) MGSWLDFKEGLADIKRSLEALGGSEAELADFEGVIALFEWKLQTYKGKGNPEVEALRKEAAAIRDELQAYRHN
7.69 | D-domain SEQ ID NO: 336 (designed binder) MGSWYLFQSHLAHIKHHLEALGGSEAELAWFEFTIAGFEQELQHYKGKGNPEVEALRKEAAAIRDELQAYRHN
5.18 | D-domain SEQ ID NO: 335 (designed binder) MGSWIIFKGYLAHIKHHLEALGGSEAELADFEFYIAIFEMELQKYKGKGNPEVEALRKEAAAIRDELQAYRHN
9.77 | D-domain SEQ ID NO: 327 (designed binder) MGSWTSFKHGLAGIKRVLEALGGSEAELATFEWYIAQFERHLQAYKGKGNPEVEALRKEAAAIRDELQAYRHN
18.8 | D-domain SEQ ID NO: 330 (designed binder) MGSWTDFKTSLADIKAELEALGGSEAELAKFEYYIAIFEYRLQEYKGKGNPEVEALRKEAAAIRDELQAYRHN
13.4 | D-domain SEQ ID NO: 315 (designed binder) MGSWAYFKYGLAVIKLHLEALGGSEAELADFERYIAEFEYELQAYKGKGNPEVEALRKEAAAIRDELQAYRHN
18.5 | D-domain SEQ ID NO: 313 (designed binder) MGSWGYFKHGLAHIKSSLEALGGSEAELADFEVWIAAFENELQEYKGKGNPEVEALRKEAAAIRDELQAYRHN
12.8 | D-domain SEQ ID NO: 314 (designed binder) MGSWGYFKTGLAIIKAQLEALGGSEAELADFELWIAQFEETLQFYKGKGNPEVEALRKEAAAIRDELQAYRHN
19.5 | D-domain SEQ ID NO: 51 (designed binder) MGSWHEFTWRLVAIQQRLQALGGSEAELAAFEKEIAAFESELQAYKGKGNPEVEELRKFAAKIRYELQAYRHN
17.1 | D-domain SEQ ID NO: 45 (designed binder) MGSWHEFTWRLIAIQQRLEALGGSEAELAAFEKEIAAFESELQAYKGKGNPEVEELRAYAAGIRHHLQAYRHN
8.9 | D-domain SEQ ID NO: 57 (designed binder) MGSWVEFAWRLEAIKQRLTALGGSEAELAAFEKEIAAFESELQAYKGKGNPEVEELRLYAAKIRRVLQAYRHN
19.1 | D-domain SEQ ID NO: 54 (designed binder) MGSWVEFSWRLEAIRQRLQALGGSEAELAAFEKEIAAFESELQAYKGKGNPEVESLRSYAARIRQELQAYRHN
9.49 | D-domain SEQ ID NO: 44 (designed binder) MGSWYEFSWRLQAIHQRLNALGGSEAELAAFEKEIAAFESELQAYKGKGNPEVEELRAYAAGIRGALQAYRHN
8.43 | D-domain SEQ ID NO: 56 (designed binder) MGSWVEFAWRLTAIDQRLSALGGSEAELAAFEKEIAAFESELQAYKGKGNPEVENLRFYAAKIRSHLQAYRHN
8.36 | D-domain SEQ ID NO: 323 (designed binder) MGSWIQFKYGLAHIKRTLEALGGSEAELAVFEWYIADFEQQLQGYKGKGNPEVEALRKEAAAIRDELQAYRHN
4.05 | D-domain SEQ ID NO: 337 (designed binder) MGSWYSFKWTLARIKLELEALGGSEAELAYFENVIAHFEMELQSYKGKGNPEVEALRKEAAAIRDELQAYRHN
13.7 | D-domain SEQ ID NO: 328 (designed binder) MGSWQSFKHALADIKINLEALGGSEAELAQFEYAIAVFEYRLQAYKGKGNPEVEALRKEAAAIRDELQAYRHN
6.76 | D-domain SEQ ID NO: 329 (designed binder) MGSWHTFKEALAQIKGELEALGGSEAELASFEYAIAVFEYRLQMYKGKGNPEVEALRKEAAAIRDELQAYRHN
17.8 | D-domain SEQ ID NO: 338 (designed binder) MGSWTTLKWRLAHIKQHLEALGGSEAELALFEYDIAHFEELLQYYKGKGNPEVEALRKEAAAIRDELQAYRHN
10.6 | D-domain SEQ ID NO: 318 (designed binder) MGSWIVFKQSLAWIKEHLEALGGSEAELAEFEFYIANFEHTLQNYKGKGNPEVEALRKEAAAIRDELQAYRHN
3.2 | D-domain SEQ ID NO: 319 (designed binder) MGSWIYFKDSLAYIKKYLEALGGSEAELATFEYYIANFEHELQYYKGKGNPEVEALRKEAAAIRDELQAYRHN

The remaining lines, values behind:

Binder | ELISA_avg
D-domain SEQ ID NO: 339 (designed binder) MGSWYGFKWYLATIKKHLEALGGSEAELALFETEIATFELWLQDYKGKGNPEVEALRKEAAAIRDELQAYRHN | 10.7
D-domain SEQ ID NO: 333 (designed binder) MGSWQFFKEHLASIKFWLEALGGSEAELAFFEDAIADFEYHLQNYKGKGNPEVEALRKEAAAIRDELQAYRHN | 10.6
D-domain SEQ ID NO: 334 (designed binder) MGSWTYFKEHLASIKFWLEALGGSEAELAFFEDAIAEFEKDLQYYKGKGNPEVEALRKEAAAIRDELQAYRHN | 6.6
D-domain SEQ ID NO: 321 (designed binder) MGSWFTFKQNLAWIKLHLEALGGSEAELARFEYYIADFENKLQLYKGKGNPEVEALRKEAAAIRDELQAYRHN | 14.2
D-domain SEQ ID NO: 332 (designed binder) MGSWHTFKDGLAEIKSELEALGGSEAELAMFEYVIAIFEYRLQNYKGKGNPEVEALRKEAAAIRDELQAYRHN | 10.7
D-domain SEQ ID NO: 320 (designed binder) MGSWDHFKYNLAWIKKYLEALGGSEAELATFEWYIANFEKRLQDYKGKGNPEVEALRKEAAAIRDELQAYRHN | 9.81
D-domain SEQ ID NO: 309 (designed binder) MGSWYYFKYGLAVIKGKLEALGGSEAELADFETWIAKFENHLQSYKGKGNPEVEALRKEAAAIRDELQAYRHN | 3.84
D-domain SEQ ID NO: 312 (designed binder) MGSWTYFKFGLAHIKDSLEALGGSEAELADFEQWIAMFEQDLQVYKGKGNPEVEALRKEAAAIRDELQAYRHN | 17
D-domain SEQ ID NO: 310 (designed binder) MGSWTYFKYGLALIKYRLEALGGSEAELADFEEWIAQFEVSLQHYKGKGNPEVEALRKEAAAIRDELQAYRHN | 15.2
D-domain SEQ ID NO: 311 (designed binder) MGSWDYFKYGLALIKIKLEALGGSEAELADFEVWIAQFEMALQVYKGKGNPEVEALRKEAAAIRDELQAYRHN | 15.8
D-domain SEQ ID NO: 49 (designed binder) MGSWTEFAWRLQAIHQRLQALGGSEAELAAFEKEIAAFESELQAYKGKGNPEVEELRVYAAKIRISLQAYRHN | 18.7
D-domain SEQ ID NO: 53 (designed binder) MGSWIEFSWRLEAIRQRLQALGGSEAELAAFEKEIAAFESELQAYKGKGNPEVESLRSYAARIRQELQAYRHN | 9.92
D-domain SEQ ID NO: 46 (designed binder) MGSWREFAWRLVAINSRLKALGGSEAELAAFEKEIAAFESELQAYKGKGNPEVEELRHYAASIRDGLQAYRHN | 9.66
D-domain SEQ ID NO: 47 (designed binder) MGSWHEFAWRLQAINQRLNALGGSEAELAAFEKEIAAFESELQAYKGKGNPEVEELRHYAAHIRNGLQAYRHN | 13.1
D-domain SEQ ID NO: 52 (designed binder) MGSWHEFTWRLIAIRERLFALGGSEAELAAFEKEIAAFESELQAYKGKGNPEVEELREYAASIRNMLQAYRHN | 13
D-domain SEQ ID NO: 55 (designed binder) MGSWVEFSWRLEAIRQRLTALGGSEAELAAFEKEIAAFESELQAYKGKGNPEVEDLRKYAARIRGELQAYRHN | 21.3
D-domain SEQ ID NO: 50 (designed binder) MGSWIEFAWRLQAIHQRLDALGGSEAELAAFEKEIAAFESELQAYKGKGNPEVEDLREYAANIRDSLQAYRHN | 19
D-domain SEQ ID NO: 48 (designed binder) MGSWNEFAWRLTAIEQRLMALGGSEAELAAFEKEIAAFESELQAYKGKGNPEVEELRHYAAGIRDNLQAYRHN | 18.3
D-domain SEQ ID NO: 317 (designed binder) MGSWEVFKHELAVIKDYLEALGGSEAELAHFEWGIAWFEGFLQDYKGKGNPEVEALRKEAAAIRDELQAYRHN | 9.33
D-domain SEQ ID NO: 322 (designed binder) MGSWREFKYGLAHIKRVLEALGGSEAELAVFEYYIAKFEQELQEYKGKGNPEVEALRKEAAAIRDELQAYRHN | 14.7
D-domain SEQ ID NO: 324 (designed binder) MGSWVEFKHNLAWIKVTLEALGGSEAELAVFEYYIAQFEEQLQEYKGKGNPEVEALRKEAAAIRDELQAYRHN | 15.8
D-domain SEQ ID NO: 325 (designed binder) MGSWISFKDNLAMIKEFLEALGGSEAELAVFEWYIATFEVELQDYKGKGNPEVEALRKEAAAIRDELQAYRHN | 7.16
D-domain SEQ ID NO: 326 (designed binder) MGSWHIFKDNLATIKAFLEALGGSEAELAVFEWYIAKFEEELQGYKGKGNPEVEALRKEAAAIRDELQAYRHN | 3.47
D-domain SEQ ID NO: 331 (designed binder) MGSWTNFKEGLAEIKRDLEALGGSEAELARFEYVIAVFEFRLQNYKGKGNPEVEALRKEAAAIRDELQAYRHN | 12.3
